In publication PMC3478262:

Biological target: Rv0132c–Δ38 protein (Mycobacterium tuberculosis H37Rv) (UniProt P96809)
Experiment: SEC

In the case of “Rv0132c–Δ38 protein (from UniProt P96809 39-360) (domain or fragment)”, the stoichiometry N is reported as 2.
